Assay results taken from the supplement of paper PMC7877785.
± gives the uncertainty stated by the source.

Assay: self-splicing fitness, log relative to wild type (ln ratio); higher = more splicing; Tetrahymena group I intron in knt gene, E. coli kanamycin selection, DiMSum; sequences stand for … in CUCUCU…GGAGGGAAAAGUUAUCAGGCAUGCACCUGGUAGCUAGUCUUUAAACCAAUAGAUUGCAUCGGUUUAAAAGGCAAGACCGUCAAAUUGCGGGAAAGGGGUCAACAGCCGUUCAGUACCAAGUCUCAGGGGAAACUUUGAGAUGGCCUUGCAAAGGGUAUGGUAAUAAGCUGACGGACAUGGUCCUAACCACGCAGCCAAGUCCUAAGUCAACAGAUCUUCUGUUGAUAUGGAUGCAGUUCACAGACUAAAUGUCGGUCGGGGAAGAUGUAUUCUUCUCAUAAGAUAUAGUCGGACCUCUCCUUAAUGGGAGCUAGCGGAUGAAGUGAUGCAACACUGGAGCCGCUGGGAACUAAUUUGUAUGCGAAAGUAUAUUGAUUAGUUUUGGAGUACUCGUGGUCG
Outline: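 Library with all eight P1ex-region intron nucleotides randomised, intron inside the knt kanamycin-resistance gene on pET-22b(+), in E. coli BL21(DE3). Cells grew overnight at 37°C or 30°C on LB agar with or without 25 μg/mL kanamycin (plus 100 μg/mL carbenicillin, 50 μM IPTG, 0.2% rhamnose), in six replicate transformations. Pooled colonies were amplicon-sequenced on Illumina HiSeq 2500. DiMSum fitness is the error-weighted combination of wild-type-normalised replicate fold changes, kanamycin versus none.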

Sequence	self-splicing fitness (ln) (30 °C)	self-splicing fitness (ln) (37 °C)
UUGCAGCAAUAUUACGCACG	-1.2 ± 0.13	-1.24 ± 0.12
UUGCAGCAAUAUUACGCAUA	-1.6 ± 0.13	-0.643 ± 0.12
UUGCAGCAAUAUUACGCGCA	-1.84 ± 0.14	-0.231 ± 0.18
UUGCAGCAAUAUUACGCGCG	-1.88 ± 0.12	-1.29 ± 0.14
UUGCAGCAAUAUUACGCGGA	-1.29 ± 0.12	-0.882 ± 0.13
UUGCAGCAAUAUUACGCUAC	-0.542 ± 0.29	
UUGCAGCAAUAUUACGGAGC	-2.2 ± 0.15	
UUGCAGCAAUAUUACGGCAA	-3.02 ± 0.23	-2.27 ± 0.24
UUGCAGCAAUAUUACGGCGC	-1.8 ± 0.24	-1.84 ± 0.31
UUGCAGCAAUAUUACGUAGA	-1.46 ± 0.074	-0.271 ± 0.079
UUGCAGCAAUAUUACGUAUG	-1.8 ± 0.081	-1.11 ± 0.12
UUGCAGCAAUAUUACGUCGA	-0.56 ± 0.09	0.0432 ± 0.13
UUGCAGCAAUAUUACGUGCG	-3.18 ± 0.16	-1.43 ± 0.14
UUGCAGCAAUAUUACGUUGU	-3.23 ± 0.2	-2.81 ± 0.2
UUGCAGCAAUAUUACGUUUA	-1.31 ± 0.096	-1.02 ± 0.088
UUGGAGCAAUAUUACGAAGU	-3.34 ± 0.37	0.521 ± 0.31
UUGGAGCAAUAUUACGACGU	-1.85 ± 0.48	
UUGGAGCAAUAUUACGAGAA		-1.78 ± 0.44
UUGGAGCAAUAUUACGAGGC	-3.52 ± 0.4	
UUGGAGCAAUAUUACGAGUC		-3.03 ± 0.43
UUGGAGCAAUAUUACGAUCA	0.364 ± 0.35	-0.451 ± 0.45
UUGGAGCAAUAUUACGAUGA	-0.635 ± 0.11	-0.543 ± 0.11
UUGGAGCAAUAUUACGAUGU	-1.71 ± 0.44	-1.83 ± 0.35
UUGGAGCAAUAUUACGCACG	-1.33 ± 0.17	-1.92 ± 0.29
UUGGAGCAAUAUUACGCCCG	-1.94 ± 0.45	
UUGGAGCAAUAUUACGCGGA		-1.08 ± 0.36
UUGGAGCAAUAUUACGCUUG	-2.69 ± 0.3	-1.25 ± 0.27

Sequence	self-splicing fitness (ln) (30 °C)	self-splicing fitness (ln) (37 °C)
UUGGAGCAAUAUUACGGCUG	-2.22 ± 0.28	
UUGGAGCAAUAUUACGGUCA	-1.21 ± 0.16	-2.65 ± 0.23
UUGGAGCAAUAUUACGGUCG	-2.36 ± 0.28	
UUGGAGCAAUAUUACGUAAU	-3.28 ± 0.19	-2.38 ± 0.31
UUGGAGCAAUAUUACGUAUG	-3.25 ± 0.36	-1.36 ± 0.37
UUGGAGCAAUAUUACGUCAG	-2.63 ± 0.26	-0.954 ± 0.2
UUGGAGCAAUAUUACGUUCU		-3.09 ± 0.27
UUGUAGCAAUAUUACGAAGG		-1.9 ± 0.47
UUGUAGCAAUAUUACGACAU	-0.918 ± 0.015	-0.322 ± 0.034
UUGUAGCAAUAUUACGAUGG	-1.53 ± 0.16	-0.75 ± 0.2
UUGUAGCAAUAUUACGCACA	-0.174 ± 0.17	-0.658 ± 0.22
UUGUAGCAAUAUUACGCAGU		-2.1 ± 0.3
UUGUAGCAAUAUUACGCCAG	-0.515 ± 0.14	-0.137 ± 0.2
UUGUAGCAAUAUUACGCUCG	-0.29 ± 0.14	-0.456 ± 0.25
UUGUAGCAAUAUUACGCUUA	-1.77 ± 0.25	-1 ± 0.2
UUGUAGCAAUAUUACGGACC	-2.38 ± 0.25	-1.46 ± 0.34
UUGUAGCAAUAUUACGGACU	-1.65 ± 0.14	-0.723 ± 0.16
UUGUAGCAAUAUUACGGAGC	-3.08 ± 0.25	-2.38 ± 0.29
UUGUAGCAAUAUUACGGCAG	-0.0514 ± 0.14	0.374 ± 0.18
UUGUAGCAAUAUUACGGCGA	0.174 ± 0.1	0.227 ± 0.14
UUGUAGCAAUAUUACGGUCA	-0.412 ± 0.17	-0.486 ± 0.2
UUGUAGCAAUAUUACGGUCG	-0.458 ± 0.12	-0.593 ± 0.15
UUGUAGCAAUAUUACGGUGC	-2.37 ± 0.45	-2.07 ± 0.34
UUGUAGCAAUAUUACGUAAG	-2.25 ± 0.17	-1.02 ± 0.16
UUGUAGCAAUAUUACGUCAA	-0.947 ± 0.16	-0.538 ± 0.16
UUUAAGCAAUAUUACGACAG	-0.664 ± 0.15	-0.475 ± 0.2
UUUAAGCAAUAUUACGACCC	-1.3 ± 0.31	0.0123 ± 0.28

Sequence	self-splicing fitness (ln) (30 °C)	self-splicing fitness (ln) (37 °C)
UUUAAGCAAUAUUACGACGA	0.228 ± 0.089	0.29 ± 0.11
UUUAAGCAAUAUUACGAGAU	-3.92 ± 0.26	-0.782 ± 0.16
UUUAAGCAAUAUUACGAGCG	-0.94 ± 0.14	-0.4 ± 0.17
UUUAAGCAAUAUUACGAUAA	-0.773 ± 0.1	0.228 ± 0.13
UUUAAGCAAUAUUACGAUCA	-0.491 ± 0.1	0.00531 ± 0.11
UUUAAGCAAUAUUACGAUGA	0.318 ± 0.13	-0.175 ± 0.14
UUUAAGCAAUAUUACGCCCU	-0.119 ± 0.24	0.0801 ± 0.28
UUUAAGCAAUAUUACGCCUG	-0.642 ± 0.14	-0.13 ± 0.14
UUUAAGCAAUAUUACGCGCU	-1.15 ± 0.18	-0.609 ± 0.2
UUUAAGCAAUAUUACGCGGC		-2.78 ± 0.31
UUUAAGCAAUAUUACGCGGG	-1.81 ± 0.13	-1.63 ± 0.14
UUUAAGCAAUAUUACGCGUG	-1.15 ± 0.13	-0.368 ± 0.14
UUUAAGCAAUAUUACGCUCA	-0.755 ± 0.15	-0.395 ± 0.17
UUUAAGCAAUAUUACGCUGU	-3.57 ± 0.21	-1.79 ± 0.18
UUUAAGCAAUAUUACGGACG	-0.647 ± 0.15	0.235 ± 0.19
UUUAAGCAAUAUUACGGCAU	-1.59 ± 0.11	-0.239 ± 0.12
UUUAAGCAAUAUUACGGCUG	-0.528 ± 0.13	-0.292 ± 0.16
UUUAAGCAAUAUUACGGGAA	-1.63 ± 0.094	-0.806 ± 0.095
UUUAAGCAAUAUUACGUAGA	-0.521 ± 0.098	0.0733 ± 0.14
UUUAAGCAAUAUUACGUCUU	-2.57 ± 0.15	-1.81 ± 0.16
UUUAAGCAAUAUUACGUGUA	-1.88 ± 0.12	-0.799 ± 0.12
UUUAAGCAAUAUUACGUUAC	-3.76 ± 0.3	-3.05 ± 0.26
UUUAAGCAAUAUUACGUUCU	-1.53 ± 0.11	-0.963 ± 0.11
UUUAAGCAAUAUUACGUUGC	-3.26 ± 0.43	-2.97 ± 0.38
UUUCAGCAAUAUUACGACUG	-2.89 ± 0.2	-1.53 ± 0.18
UUUCAGCAAUAUUACGACUU	-0.723 ± 0.077	-0.00938 ± 0.099
